Experiments:
rbp1a_arath RANBP1A = rbp1a_arath RANBP1A (UniProt Q9LMK7)
rbp1b_arath RANBP1B = rbp1b_arath RANBP1B (UniProt Q8RWG8)
rbp1b_arath RANBP1B, sequence (Q8RWG8 whole entry): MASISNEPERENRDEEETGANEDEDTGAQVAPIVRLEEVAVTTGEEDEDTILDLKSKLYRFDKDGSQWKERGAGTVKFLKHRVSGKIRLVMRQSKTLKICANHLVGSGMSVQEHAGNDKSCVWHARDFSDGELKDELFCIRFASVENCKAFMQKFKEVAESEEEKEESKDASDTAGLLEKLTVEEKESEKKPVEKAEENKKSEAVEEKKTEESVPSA

GTP-binding nuclear protein Ran-1 (Arabidopsis thaliana (Mouse-ear cress)), P41916 T24D, sequence (P41916 whole entry T24D): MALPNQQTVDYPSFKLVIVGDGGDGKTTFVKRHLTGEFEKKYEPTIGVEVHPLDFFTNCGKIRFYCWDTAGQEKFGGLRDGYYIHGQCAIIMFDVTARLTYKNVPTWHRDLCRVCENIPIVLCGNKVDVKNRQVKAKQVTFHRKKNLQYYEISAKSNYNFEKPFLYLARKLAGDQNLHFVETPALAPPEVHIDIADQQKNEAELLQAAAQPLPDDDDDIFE
rbp1a_arath RANBP1A, sequence (Q9LMK7 whole entry): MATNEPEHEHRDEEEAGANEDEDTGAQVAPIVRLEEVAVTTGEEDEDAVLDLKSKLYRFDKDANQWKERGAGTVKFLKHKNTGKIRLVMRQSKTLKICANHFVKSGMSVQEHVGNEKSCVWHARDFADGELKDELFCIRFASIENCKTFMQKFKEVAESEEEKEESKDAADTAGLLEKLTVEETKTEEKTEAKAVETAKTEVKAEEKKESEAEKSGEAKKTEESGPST

GTP-binding nuclear protein Ran-1 (Arabidopsis thaliana (Mouse-ear cress)), P41916 T24D
effect of a mutation on the interaction (rbp1a_arath RANBP1A): disrupting interaction | effect of a mutation on the interaction (rbp1b_arath RANBP1B): disrupting interaction

From IntAct's records for PubMed 9025305
